Where a SMILES comes first, the peptide text is derived from it. Where no end group is shown, it is not given here.
Experiments:
hPD-1 = biological target: T1, hPD-1 (Homo sapiens, UniProt Q15116); test: SPR direct binding assay, hPD-1 immobilized on CM5 sensor chip; conditions: steady-state model, PBS-P buffer pH 7.4, 25°C, mean ± SD from three independent experiments
T1 construct: extracellular region of hPD-1 (amino acids 34–150); made in house; host or cells: E. coli BL21 (DE3)
Method: The purified active hPD-1 was diluted in 10 mM sodium acetate buffer (pH 4.5) to the final concentration of 50 μg/ml. The diluted hPD-1 was immobilized on a CM5 sensor chip by amino coupling reagent kit, and the immobilization level was 5000 response unit (RU). Binding experiments were performed in PBS-P buffer (8 mM Na2HPO4, 2 mM KH2PO4, 137 mM NaCl, 2.7 mM KCl, 0.005% surfactant P20, pH 7.4) at 25°C with a flow rate of 30 μl/min. […] RU values were collected and all the experimental data was globally analyzed by a steady-state model within Biacore T200 Evaluation software, version 2.0.

[1] = biological target: T2, human programmed death 1 (hPD-1), extracellular region (amino acids 34-150) (human, UniProt Q15116 34-150); test: SPR; Biacore T200; hPD-1 immobilised on a CM5 chip by amine coupling (5000 RU); peptides or hPD-L1 injected 90 s, dissociation 120 s; PBS-P buffer pH 7.4, 25°C, 30 μl/min; steady-state model; conditions: both partners purified
T2 construct: extracellular region of human PD-1, amino acids 34-150, cloned into pET28a between NcoI and NdeI sites; purification was by cation exchange and gel filtration; also called CD279
T2 sequence (Q15116 34-150): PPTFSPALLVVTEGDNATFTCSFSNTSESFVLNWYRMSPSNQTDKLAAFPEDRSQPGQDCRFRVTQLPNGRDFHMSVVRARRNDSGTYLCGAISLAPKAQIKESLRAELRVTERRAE

[2] = biological target: T2, human programmed death 1 (hPD-1), …; test: as above; conditions: both partners purified; remark: listed apart in the source
[3] = biological target: T2, human programmed death 1 (hPD-1), …; test: as above; conditions: both partners purified; remark: listed apart in the source

T1 sequence (Q15116 34-150): as above

**Q.** N[C@@H](Cc1c[nH]c2ccccc12)C(=O)N[C@@H](CC(=O)O)C(=O)N[C@@H](Cc1ccc(O)cc1)C(=O)N[C@@H](CC(=O)O)C(=O)O [Ar3_1, WDYD] (H-WDYD-OH) was tested. Which Kd (hPD-1) did it give?
**A.** 22.4 ± 0.34 µM

**Q.** How did the Kd (hPD-1) turn out when GNWDANSQRAQLYNQ [Peptide Y5A] was run?
**A.** 20.1 ± 0.98 µM

B1: Ar5Y_4 (peptide)
peptide: GNWDYNSQRAQLYNQ
notes: de novo designed peptide with anchor residues Y56, R113, A121, D122 and Y123 of hPD-L1; source: synthetic peptide (Fmoc solid-phase synthesis)
**Q.** With B1 as the molecule, how does the Kd [1] read?
**A.** 1.38 µM

B2: Ar5Y_4 mutant W3A (peptide)
peptide: GNADYNSQRAQLYNQ
notes: numbers count on the peptide itself; source: synthetic peptide (Fmoc solid-phase synthesis)
**Q.** How did the Kd [2] turn out when B2 was run?
**A.** 8.08 µM

B3: Ar5Y_4 mutant R9A (peptide)
peptide: GNWDYNSQAAQLYNQ
notes: as for B2
**Q.** Which Kd [2] does the source give for B3 here?
**A.** 21.2 µM

B4: Ar5Y_4 mutant Y5A (peptide)
peptide: GNWDANSQRAQLYNQ
notes: as for B2
**Q.** B4 was tested. Which Kd [2] did it give?
**A.** 20.2 µM

B5: Ar5Y_4 mutant Y13A (peptide)
peptide: GNWDYNSQRAQLANQ
notes: as for B2
**Q.** B5 was tested. Which Kd [2] did it give?
**A.** 10.2 µM

B6: Ar5Y_4 mutant D4A (peptide)
peptide: GNWAYNSQRAQLYNQ
notes: as for B2
**Q.** For B6, which Kd [2] is on record?
**A.** 18.9 µM

B7: Ar4_1 (peptide)
peptide: GIDYEERWK
notes: peptide designed with anchor residues R113, A121, D122 and Y123 of hPD-L1; source: synthetic peptide (Fmoc solid-phase synthesis)
**Q.** Which Kd [3] does the source give for B7 here?
**A.** 28.3 µM

B8: Ar5M_2 (peptide)
peptide: LDYVNRRKMYQ
notes: peptide designed with anchor residues R113, M115, A121, D122 and Y123 of hPD-L1; source: synthetic peptide (Fmoc solid-phase synthesis)
**Q.** How did the Kd [3] turn out when B8 was run?
**A.** 3.32 µM

B9: Ar5Y_3 (peptide)
peptide: TEKDYRHGNIRMKLAYDL
notes: as for B1
**Q.** With B9 as the molecule, how does the Kd [1] read?
**A.** 3.13 µM

B10: Ar5M_1 (peptide)
peptide: LDYGDKREGQMAE
notes: as for B8
**Q.** Which Kd [3] does the source give for B10 here?
**A.** 21.6 µM

B11: Ar4_2 (peptide)
peptide: LDYDGRLSQ
notes: as for B7
**Q.** For B11, which Kd [3] is on record?
**A.** 83.9 µM

B12: Ar5Y_2 (peptide)
peptide: FNWDYSLEELREKAKYK
notes: as for B1
**Q.** Which Kd [1] does the source give for B12 here?
**A.** 3.14 µM

B13: Ar5Y_1 (peptide)
peptide: FNWDYSWKSERLKEAYDL
notes: as for B1
**Q.** How did the Kd [1] turn out when B13 was run?
**A.** 3.39 µM

Source: paper PMC5323130 (Oncotarget, 2016)
